The source of these data is US20170035908A1 (published 2017).

The assay deals with T1, PAM4 antigen (pancreatic cancer mucin, CaPan1 human pancreatic tumor).
T1 construct: also called CaPan1 Ag; CaPan1 antigens
Description: ELISA on target mucin antigen (FIG. 9).

B1: humanized PAM4 antibody (antibody, V domains shown)
VH: QVQLQQSGAEVKKPGASVKVSCEASGYTFPSYVLHWVKQAPGQGLEWIGYINPYNDGTQYNEKFKGKATLTRDTSINTAYMELSRLRSDDTAVYYCARGFGGSYGFAYWGQGTLVTVSS
VL: DIQLTQSPSSLSASVGDRVTMTCSASSSVSSSYLYWYQQKPGKAPKLWIYSTSNLASGVPARFSGSGSGTDFTLTISSLQPEDSASYFCHQWNRYPYTFGGGTRLEIKR
notes: also called hPAM4; hPAM4 IgG
As to B1, the EC50 worked out at 1.31 nM.
